From paper PMC9482650, “Quantitative fragmentomics allow affinity mapping of interactomes” (Nature Communications, 2022)

T1: APBA2_1, Q99767
T1 sequence (Q99767 563-664, limits assumed, looked up): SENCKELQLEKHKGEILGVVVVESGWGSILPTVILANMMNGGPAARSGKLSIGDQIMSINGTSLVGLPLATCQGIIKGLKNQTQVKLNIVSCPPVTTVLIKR

T2: DLG3_1, Q92796
T2 sequence (Q92796 125-227, limits assumed, looked up): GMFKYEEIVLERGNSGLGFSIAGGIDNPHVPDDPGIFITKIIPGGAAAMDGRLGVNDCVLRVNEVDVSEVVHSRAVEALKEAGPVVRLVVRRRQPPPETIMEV

T3: DLG3_2, Q92796
T3 sequence (Q92796 221-321, limits assumed, looked up): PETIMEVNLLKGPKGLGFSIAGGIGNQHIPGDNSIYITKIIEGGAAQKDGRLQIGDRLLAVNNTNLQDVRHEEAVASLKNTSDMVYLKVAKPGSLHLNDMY

T4: LIN7A, O14910
T4 sequence (O14910 103-200, limits assumed, looked up): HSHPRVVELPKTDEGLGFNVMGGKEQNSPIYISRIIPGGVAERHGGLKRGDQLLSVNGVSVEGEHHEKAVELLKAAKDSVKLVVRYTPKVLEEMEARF

T5: LIN7B, Q9HAP6
T5 sequence (Q9HAP6 88-185, limits assumed, looked up): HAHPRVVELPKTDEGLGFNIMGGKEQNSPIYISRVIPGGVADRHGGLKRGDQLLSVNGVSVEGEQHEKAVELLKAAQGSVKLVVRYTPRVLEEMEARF

T6: PDZRN3_1, Q9UPQ7
T6 sequence (Q9UPQ7 244-349, limits assumed, looked up): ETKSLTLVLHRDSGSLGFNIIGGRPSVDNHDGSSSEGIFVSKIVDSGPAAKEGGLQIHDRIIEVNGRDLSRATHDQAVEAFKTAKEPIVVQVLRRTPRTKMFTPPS

T7: RADIL, Q96JH8
T7 sequence (Q96JH8 971-1071, limits assumed, looked up): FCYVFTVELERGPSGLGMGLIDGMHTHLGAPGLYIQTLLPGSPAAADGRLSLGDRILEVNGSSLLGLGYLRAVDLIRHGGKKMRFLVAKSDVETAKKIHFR

T8: SNTA1, Q13424
T8 sequence (Q13424 82-180, limits assumed, looked up): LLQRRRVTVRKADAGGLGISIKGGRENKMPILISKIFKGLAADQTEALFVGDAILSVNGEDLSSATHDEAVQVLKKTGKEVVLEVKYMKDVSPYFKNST

T9: SNTG1, Q9NSN8
T9 sequence (Q9NSN8 52-150, limits assumed, looked up): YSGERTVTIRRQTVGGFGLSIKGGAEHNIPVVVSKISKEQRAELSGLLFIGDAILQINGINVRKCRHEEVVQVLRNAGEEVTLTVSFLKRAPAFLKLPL

T10: SNTG2, Q9NY99
T10 sequence (Q9NY99 68-166, limits assumed, looked up): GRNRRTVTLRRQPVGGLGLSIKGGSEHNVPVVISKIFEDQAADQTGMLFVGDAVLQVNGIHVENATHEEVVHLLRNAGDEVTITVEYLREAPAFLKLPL

T11: TIAM2, Q8IVF5
T11 sequence (Q8IVF5 885-986, limits assumed, looked up): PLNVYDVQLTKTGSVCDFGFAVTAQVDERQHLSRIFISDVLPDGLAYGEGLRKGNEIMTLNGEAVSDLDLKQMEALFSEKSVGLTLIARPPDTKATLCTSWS

T12: TX1BP3, O14907
T12 sequence (O14907 10-122, limits assumed, looked up): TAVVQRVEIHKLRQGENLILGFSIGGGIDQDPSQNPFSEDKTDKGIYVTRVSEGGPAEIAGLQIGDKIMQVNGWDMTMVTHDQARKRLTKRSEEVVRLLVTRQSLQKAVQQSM


Tests used:
Assay in all cases: holdup assay
Set-up in all cases: key: below the threshold = too weak to quantify, mostly under pKd 3.1 to 4
Conditions in all cases: plain residues with an end cap or a label only (N-terminal biotin on a linker: ado-ado)
[1] = target: T1, APBA2_1, Q99767
[2] = target: ARHGEF12, Q9NZN5-2
ARHGEF12, Q9NZN5-2, sequence (Q9NZN5 other isoform, or with tags, fused parts or gaps): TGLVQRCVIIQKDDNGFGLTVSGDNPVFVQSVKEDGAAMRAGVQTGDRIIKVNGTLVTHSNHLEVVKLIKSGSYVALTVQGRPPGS

[3] = target: CASK, O14936
CASK, O14936, sequence (O14936 487-570): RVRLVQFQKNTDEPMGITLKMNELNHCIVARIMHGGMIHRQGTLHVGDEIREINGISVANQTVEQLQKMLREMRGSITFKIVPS

[4] = target: T2, DLG3_1, Q92796
[5] = target: T3, DLG3_2, Q92796
[6] = target: DLG5_1, Q8TDM6
DLG5_1, Q8TDM6, sequence (Q8TDM6 617-713): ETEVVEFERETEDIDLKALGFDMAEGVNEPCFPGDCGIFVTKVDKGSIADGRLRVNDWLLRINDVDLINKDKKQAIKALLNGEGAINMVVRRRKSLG

[7] = target: FRMPD4, Q14CM0
FRMPD4, Q14CM0, sequence (Q14CM0 67-160): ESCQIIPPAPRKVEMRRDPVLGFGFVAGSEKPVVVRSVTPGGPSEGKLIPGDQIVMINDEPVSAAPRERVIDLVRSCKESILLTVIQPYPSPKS

[8] = target: GORASP2, Q9H8Y8
[9] = target: GRID2IP_2, A4D2P6
GRID2IP_2, A4D2P6, sequence (A4D2P6 272-370): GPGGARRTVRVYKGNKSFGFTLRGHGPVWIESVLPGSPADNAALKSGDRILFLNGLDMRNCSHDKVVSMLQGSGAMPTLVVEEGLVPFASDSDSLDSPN

[10] = target: Inadl_1, Q8NI35
Inadl_1, Q8NI35, sequence (Q8NI35 113-229): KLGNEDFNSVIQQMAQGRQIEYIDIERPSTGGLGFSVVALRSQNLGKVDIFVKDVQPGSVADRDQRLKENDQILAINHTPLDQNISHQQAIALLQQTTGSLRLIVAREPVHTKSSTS

[11] = target: T4, LIN7A, O14910
[12] = target: T5, LIN7B, Q9HAP6
[13] = target: MAGI1_1, Q96QZ7
MAGI1_1, Q96QZ7, sequence (Q96QZ7 1-106): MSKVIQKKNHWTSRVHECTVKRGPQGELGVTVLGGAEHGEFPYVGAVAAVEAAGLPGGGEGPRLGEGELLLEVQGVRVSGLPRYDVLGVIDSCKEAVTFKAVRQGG

[14] = target: MAST2, Q6P0Q8
MAST2, Q6P0Q8, sequence (Q6P0Q8 1099-1202): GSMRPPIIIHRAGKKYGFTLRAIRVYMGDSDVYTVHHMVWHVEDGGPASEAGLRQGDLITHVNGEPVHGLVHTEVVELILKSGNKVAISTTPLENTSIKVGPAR

[15] = target: NHERF4_2, Q86UT5
NHERF4_2, Q86UT5, sequence (Q86UT5 220-308): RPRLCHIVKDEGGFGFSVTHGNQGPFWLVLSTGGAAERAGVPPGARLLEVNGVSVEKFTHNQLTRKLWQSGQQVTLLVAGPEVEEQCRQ

[16] = target: T6, PDZRN3_1, Q9UPQ7
[17] = target: PICK1, Q9NRD5
PICK1, Q9NRD5, sequence (Q9NRD5 17-115): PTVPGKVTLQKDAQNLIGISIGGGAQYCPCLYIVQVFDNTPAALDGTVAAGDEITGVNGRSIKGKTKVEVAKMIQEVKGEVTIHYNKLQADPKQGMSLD

[18] = target: T7, RADIL, Q96JH8
[19] = target: T8, SNTA1, Q13424
[20] = target: T9, SNTG1, Q9NSN8
[21] = target: T10, SNTG2, Q9NY99
[22] = target: T11, TIAM2, Q8IVF5
[23] = target: TJP1_2, Q07157
TJP1_2, Q07157, sequence (Q07157 181-274): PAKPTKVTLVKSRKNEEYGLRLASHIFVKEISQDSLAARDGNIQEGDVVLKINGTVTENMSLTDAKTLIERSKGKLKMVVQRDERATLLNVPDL

[24] = target: T12, TX1BP3, O14907

Binder | pKd [1] | pKd [2] | pKd [3] | pKd [4] | pKd [5] | pKd [6] | pKd [7] | pKd [8] | pKd [9] | pKd [10] | pKd [11] | pKd [12] | pKd [13] | pKd [14] | pKd [15] | pKd [16] | pKd [17] | pKd [18] | pKd [19] | pKd [20] | also measured
SVTSERETNI [SLC16A7, O60669] | below the threshold | 3.67 | below the threshold | below the threshold | 4.25 | below the threshold | below the threshold | below the threshold | below the threshold | below the threshold | below the threshold | 3.62 | below the threshold | 4.84 | below the threshold | 4 | below the threshold | below the threshold | 5.09 | 4.61 | pKd [21]: 4.51; pKd [22]: 3.83; pKd [23]: below the threshold; pKd [24]: below the threshold
GIKKITSTAL [RPS6KA3, P51812] | below the threshold | 5.58 | below the threshold | 3.61 | 3.73 | below the threshold | 4.26 | below the threshold | 4.74 | below the threshold | below the threshold | below the threshold | below the threshold | 5.88 | 3.55 | 4.36 | below the threshold | below the threshold | 3.94 | 3.68 | pKd [21]: 4.23; pKd [22]: below the threshold; pKd [23]: below the threshold; pKd [24]: 4.59
NVYGIESVKI [GRIA2, P42262] | below the threshold | 3.59 | below the threshold | 3.5 | 4.19 | 3.59 | below the threshold | 4.18 | below the threshold | below the threshold | below the threshold | 3.74 | 3.59 | 4.35 | below the threshold | below the threshold | below the threshold | below the threshold | below the threshold | 3.65 | pKd [21]: below the threshold; pKd [22]: 4.21; pKd [23]: below the threshold; pKd [24]: below the threshold
PSHPRLQTHV [KIRREL2, Q6UWL6] | below the threshold | 4.26 | below the threshold | 3.55 | 4.6 | below the threshold | below the threshold | 3.55 | 4.08 | below the threshold | below the threshold | below the threshold | below the threshold | 5.5 | below the threshold | below the threshold | below the threshold | 3.73 | below the threshold | below the threshold | pKd [21]: below the threshold; pKd [22]: 3.73; pKd [23]: below the threshold; pKd [24]: 4.64
TISFTQTSQF [SLC1A1, P43005] | below the threshold | 3.79 | below the threshold | below the threshold | 4.08 | below the threshold | below the threshold | below the threshold | below the threshold | below the threshold | below the threshold | below the threshold | below the threshold | 4.89 | below the threshold | below the threshold | below the threshold | below the threshold | below the threshold | below the threshold | pKd [21]: below the threshold; pKd [22]: 4.14; pKd [23]: below the threshold; pKd [24]: below the threshold
NNNVVKVDSV [MTNR1A, P48039] | below the threshold | below the threshold | below the threshold | below the threshold | 4.03 | below the threshold | below the threshold | below the threshold | below the threshold | below the threshold | below the threshold | 3.7 | below the threshold | below the threshold | below the threshold | below the threshold | 4.06 | below the threshold | below the threshold | below the threshold | pKd [21]: below the threshold; pKd [22]: 3.77; pKd [23]: below the threshold; pKd [24]: below the threshold
